{
  "source": "paper PMC10165143",
  "about": "(Computational and Structural Biotechnology Journal, 2023)",
  "binders": {"B1": {"name": "FITC-labeled synthetic Trk1 peptide (FITC-RRCFpTLLFP) with phosphorylated Thr900 (peptide)", "peptide": "{FITC}-RRCF[pT]LLFP"}},
  "key": {"[1]": {"target": "T1, Bmh1 (S. cerevisiae 14-3-3 isoform) (S. cerevisiae, UniProt P29311 1-267)", "T1 sequence (looked up)": "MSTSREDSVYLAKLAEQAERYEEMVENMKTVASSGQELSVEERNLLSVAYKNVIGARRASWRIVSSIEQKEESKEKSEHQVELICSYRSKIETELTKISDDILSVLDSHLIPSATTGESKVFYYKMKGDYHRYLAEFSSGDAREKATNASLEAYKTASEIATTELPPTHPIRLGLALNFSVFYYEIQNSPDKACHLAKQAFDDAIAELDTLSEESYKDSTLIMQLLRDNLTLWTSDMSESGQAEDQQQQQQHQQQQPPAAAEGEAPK", "assay": "fluorescence polarisation"}, "[2]": {"target": "T2, Bmh2 (S. cerevisiae 14-3-3 isoform) (S. cerevisiae, UniProt P34730 1-273)", "T2 sequence (looked up)": "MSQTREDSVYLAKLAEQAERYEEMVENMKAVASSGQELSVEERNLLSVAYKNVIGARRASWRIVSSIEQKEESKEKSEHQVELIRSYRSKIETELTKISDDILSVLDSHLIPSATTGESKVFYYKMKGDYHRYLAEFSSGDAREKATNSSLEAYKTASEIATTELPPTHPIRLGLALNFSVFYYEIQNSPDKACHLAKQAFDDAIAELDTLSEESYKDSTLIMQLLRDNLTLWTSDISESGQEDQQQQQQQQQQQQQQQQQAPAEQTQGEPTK", "assay": "fluorescence polarisation"}},
  "note": "Where no end group is shown, it is not given here. [ ]: non-standard residue; d: D form. The star is where a group is joined. FITC = O=C1OC2(c3ccc(O)cc3Oc3cc(O)ccc32)c2ccc(NC(=S)*)cc21; pT = C[C@@H](OP(=O)(O)O)[C@H](N)C(=O)O",
  "data": [
    {"binder": "B1", "values": [
      {"measurement": "Kd", "setting": "[1]", "result": 4, "unit": "µM"},
      {"measurement": "Kd", "setting": "[2]", "result": 3.4, "unit": "µM"}
    ]}
  ]
}
